Data on one molecule can be found in article PMC7863392 (EMBO Molecular Medicine, 2020).

Test [1] has as its target T1, recombinant, His-tagged PSMA produced by transfected CHO cells (Homo sapiens, UniProt Q04609).
T1 construct: prostate-specific membrane antigen (PSMA; FOLH1); probably the soluble extracellular part (surmised); source: transfected CHO cells
Description: SPR; chimeric antibodies immobilised on a Protein A coated sensor chip; His-tagged PSMA flowed; Biacore X, 25°C, 30 μl/min. The conditions noted are these: both partners purified. In general terms: Surface plasmon resonance follows binding to a sensor surface in real time, without labels.

In test [2] the target is T2, PSMA in lysates of 22Rv1^high cells and of lung SCC tumor samples (Homo sapiens, UniProt Q04609-1).
T2 construct: prostate-specific membrane antigen (PSMA; FOLH1), human, endogenous; also called FOLH1; source: endogenous, lysates of 22Rv1^high cells and of slices of lung squamous cell carcinoma tumors
The test can be described thus: co-IP; immunoprecipitation of PSMA from 22Rv1^high cell lysate with chimeric antibody on protein G agarose beads; Western blot with murine J591. The settings on record: one partner purified.

T1 sequence (Q04609 56-750): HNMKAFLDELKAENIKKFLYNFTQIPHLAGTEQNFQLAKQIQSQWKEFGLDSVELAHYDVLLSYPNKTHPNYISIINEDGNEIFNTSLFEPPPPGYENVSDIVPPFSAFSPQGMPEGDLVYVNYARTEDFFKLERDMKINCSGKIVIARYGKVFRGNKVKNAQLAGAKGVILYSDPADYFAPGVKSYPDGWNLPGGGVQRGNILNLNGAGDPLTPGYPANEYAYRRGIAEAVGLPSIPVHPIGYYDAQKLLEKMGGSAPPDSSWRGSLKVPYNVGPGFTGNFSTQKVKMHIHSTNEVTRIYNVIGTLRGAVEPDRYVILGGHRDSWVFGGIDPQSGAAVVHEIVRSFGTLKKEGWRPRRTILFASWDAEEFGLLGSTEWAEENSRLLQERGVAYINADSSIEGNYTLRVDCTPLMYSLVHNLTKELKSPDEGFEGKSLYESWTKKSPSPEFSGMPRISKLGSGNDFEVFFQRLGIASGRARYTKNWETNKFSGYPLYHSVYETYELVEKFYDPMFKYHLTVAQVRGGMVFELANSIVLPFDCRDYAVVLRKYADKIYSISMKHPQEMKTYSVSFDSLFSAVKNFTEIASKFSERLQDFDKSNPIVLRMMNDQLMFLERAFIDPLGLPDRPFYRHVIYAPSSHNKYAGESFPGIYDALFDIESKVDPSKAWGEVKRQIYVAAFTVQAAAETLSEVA
T2 sequence (Q04609 whole entry): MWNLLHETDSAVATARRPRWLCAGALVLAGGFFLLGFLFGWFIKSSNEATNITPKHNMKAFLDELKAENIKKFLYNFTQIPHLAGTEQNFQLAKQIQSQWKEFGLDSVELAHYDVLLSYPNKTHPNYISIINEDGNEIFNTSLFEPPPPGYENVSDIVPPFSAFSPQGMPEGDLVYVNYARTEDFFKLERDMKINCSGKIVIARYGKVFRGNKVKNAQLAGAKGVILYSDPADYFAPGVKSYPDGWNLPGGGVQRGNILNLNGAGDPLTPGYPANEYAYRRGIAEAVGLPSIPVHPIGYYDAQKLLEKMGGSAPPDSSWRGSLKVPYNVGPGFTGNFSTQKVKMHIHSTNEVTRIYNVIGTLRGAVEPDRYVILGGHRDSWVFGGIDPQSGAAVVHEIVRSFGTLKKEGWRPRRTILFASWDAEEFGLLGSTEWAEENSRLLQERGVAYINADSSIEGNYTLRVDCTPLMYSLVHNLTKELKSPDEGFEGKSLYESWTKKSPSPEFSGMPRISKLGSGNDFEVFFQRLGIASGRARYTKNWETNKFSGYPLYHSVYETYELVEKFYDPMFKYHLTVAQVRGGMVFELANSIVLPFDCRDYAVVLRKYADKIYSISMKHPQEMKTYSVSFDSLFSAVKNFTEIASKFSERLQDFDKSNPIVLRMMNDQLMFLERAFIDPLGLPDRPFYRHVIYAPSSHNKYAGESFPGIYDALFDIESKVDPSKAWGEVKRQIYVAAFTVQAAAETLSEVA

B1: chimeric J591 antibody (murine J591 variable regions fused to human constant regions) (antibody, V domains shown)
VH: EVQLQQSGPELVKPGTSVRISCKTSGYTFTEYTIHWVKQSHGKSLEWIGNINPNNGGTTYNQKFEDKATLTVDKSSSTAYMELRSLTSEDSAVYYCAAGWNFDYWGQGTTLTVSS
VL: DIVMTQSHKFMSTSVGDRVSIICKASQDVGTAVDWYQQKPGQSPKLLIYWASTRHTGVPDRFTGSGSGTDFTLAITNVQSEDLADYFCQQYNSYPLTFGAGTKLEIK
With B1, the binding result in test [1] and in test [2] was “binds” in each case.
